Measured values reported in publication PMC2669833.

Biological target: Alvinella pompejana Cu, Zn superoxide dismutase (Alvinella pompejana)
Experiment: SAXS

stoichiometry N: 2
Substance: Alvinella pompejana Cu, Zn superoxide dismutase (enzyme)
